The data set concerns the molecule itself. In words: cryo-EM structure.

B1: mature wild-type S. cerevisiae PIM1 lacking the mitochondrial targeting sequence (Met182 – Asp1133) (enzyme, UniProt P36775 182-1133, looked up)
chain: MLALPIARRPLFPGFYKAVVISDERVMKAIKEMLDRQQPYIGAFMLKNSEEDTDVITDKNDVYDVGVLAQITSAFPSKDEKTGTETMTALLYPHRRIKIDELFPPNEEKEKSKEQAKDTDTETTVVEDANNPEDQESTSPATPKLEDIVVERIPDSELQHHKRVEATEEESEELDDIQEGEDINPTEFLKNYNVSLVNVLNLEDEPFDRKSPVINALTSEILKVFKEISQLNTMFREQIATFSASIQSATTNIFEEPARLADFAAAVSAGEEDELQDILSSLNIEHRLEKSLLVLKKELMNAELQNKISKDVETKIQKRQREYYLMEQLKGIKRELGIDDGRDKLIDTYKERIKSLKLPDSVQKIFDDEITKLSTLETSMSEFGVIRNYLDWLTSIPWGKHSKEQYSIPRAKKILDEDHYGMVDVKDRILEFIAVGKLLGKVDGKIICFVGPPGVGKTSIGKSIARALNRKFFRFSVGGMTDVAEIKGHRRTYIGALPGRVVQALKKCQTQNPLILIDEIDKIGHGGIHGDPSAALLEVLDPEQNNSFLDNYLDIPIDLSKVLFVCTANSLETIPRPLLDRMEVIELTGYVAEDKVKIAEQYLVPSAKKSAGLENSHVDMTEDAITALMKYYCRESGVRNLKKHIEKIYRKAALQVVKKLSIEDSPTSSADSKPKESVSSEEKAENNAKSSSEKTKDNNSEKTSDDIEALKTSEKINVSISQKNLKDYVGPPVYTTDRLYETTPPGVVMGLAWTNMGGCSLYVESVLEQPLHNCKHPTFERTGQLGDVMKESSRLAYSFAKMYLAQKFPENRFFEKASIHLHCPEGATPKDGPSAGVTMATSFLSLALNKSIDPTVAMTGELTLTGKVLRIGGLREKAVAAKRSGAKTIIFPKDNLNDWEELPDNVKEGLEPLAADWYNDIFQKLFKDVNTKEGNSVWKAEFEILDAKKEKD
What is called stoichiometry N is a count of units in the complex or per binding partner. As to B1, the “stoichiometry N” value is 6.

These data come from paper doi:10.1101/2021.11.24.469940 (bioRxiv, 2021).
